First the molecules themselves.
B1: InDOTA-Ttds-Asp-Trp-5Clw-Hyp-Glu-leu-[Cys(3MeBn)-Aib-Leu-Ile-AET] (peptide)
peptide: {DOTA(In)-Ttds}-DW[Trp(5-Cl)][Hyp]E[dL]C[Aib]LI[Cysteamide]
modifications: linker 7-11 via 3MeBn; also: DOTA as indium complex (InDOTA)
B2: DOTA-Ttds-Asp-Trp-5Clw-Tap-Glu-leu-[Cys(2Lut)-Apc-Leu-Ile-AET] (peptide)
peptide: {DOTA-Ttds}-DW[Trp(5-Cl)][Pro(trans-4-NH2)]E[dL]C[Api]LI[Cysteamide]
modifications: linker 7-11 via Pyridine(2,6-diCH2)
B3: Ac-Ser-Trp-5Clw-Hyp-Glu-leu-[Cys(2Lut)-Thp-Leu-Ile-Cys]-NH2 (peptide)
peptide: Ac-SW[Trp(5-Cl)][Hyp]E[dL]C[Thp]LIC-NH2
modifications: linker 7-11 via Pyridine(2,6-diCH2)
SMILES: CC[C@H](C)[C@@H]1NC(=O)[C@H](CC(C)C)NC(=O)C2(CCOCC2)NC(=O)[C@@H](NC(=O)[C@@H](CC(C)C)NC(=O)[C@H](CCC(=O)O)NC(=O)[C@@H]2C[C@@H](O)CN2C(=O)[C@H](Cc2c[nH]c3ccc(Cl)cc23)NC(=O)[C@H](Cc2c[nH]c3ccccc23)NC(=O)[C@H](CO)NC(C)=O)CSCc2cccc(n2)CSC[C@@H](C(N)=O)NC1=O
B4: HO-Succinyl-Trp-5Clw-Hyp-Glu-leu-[Cys(2Lut)-Thp-Leu-Ile-Cys]-Ape-DOTA (peptide)
peptide: Suc-W[Trp(5-Cl)][Hyp]E[dL]C[Thp]LIC-{NH(CH2)5NH2-DOTA′}
modifications: linker 6-10 via 2Lut
B5: HO-Succinyl-Trp-5Clw-Hyp-Glu-leu-[Cys(2Lut)-Thp-Leu-Ile-Cys]-APAc-Lys(DOTA)-NH2 (peptide)
peptide: Suc-W[Trp(5-Cl)][Hyp]E[dL]C[Thp]LIC-{APAc-Lys(DOTA)-NH2}
modifications: linker 6-10 via 2Lut
B6: AGLU-Glutar-Asp-Trp-5Clw-Hyp-Glu-leu-[Cys(2Lut)-Apc(InDOTA)-Leu-Ile-AET] (peptide)
peptide: {AGLU-Glutaryl}-DW[Trp(5-Cl)][Hyp]E[dL]C[Api](DOTA(In))LI[Cysteamide]
modifications: thioether (positions not given here) via Pyridine(2,6-diCH2); not fully specified (bridges); printed as AGLU-Glutar-Asp-Trp-5Clw-Hyp-Glu-leu-[Cys(2Lut)-Apc(InDOTA)-Leu-Ile-AET]; also: In complex of DOTA
B7: AGLU-Glutar-Asp-Trp-5Clw-Hyp-Glu-leu-[Cys(2Lut)-Apc(AGLU-Glutar)-Leu-Ile-Cys]-APAc-Lys(DOTA)-NH2 (peptide)
peptide: DWXXEXCXLIC
modifications: AGLU-Glutar; 5Clw; Hyp; D-leu; Apc(AGLU-Glutar); 2Lut bridge Cys-Cys; APAc; Lys(DOTA); C-term NH2
B8: InDOTA-APAc-Asp-Trp-5Clw-Pro-Glu-leu-[Cys(3MeBn)-Aib-Leu-Ile-AET] (peptide)
peptide: {DOTA(In)-APAc″}-DW[Trp(5-Cl)]PE[dL]C[Aib]LI[Cysteamide]
modifications: linker 7-11 via 3MeBn; also: DOTA as indium complex (InDOTA)
B9: HO-Succinyl-Trp-5Clw-Hyp-Glu-leu-[Cys(2Lut)-Thp-Leu-Ile-Cys]-PP-DOTA (peptide)
peptide: Suc-W[Trp(5-Cl)][Hyp]E[dL]C[Thp]LIC-{N(CH2CH2)2NH-DOTA′}
modifications: linker 6-10 via 2Lut
B10: HO-Succinyl-Trp-5Clw-Hyp-Glu-leu-[Cys(2Lut)-Apc(DOTA)-Leu-Ile-AET] (peptide)
peptide: Suc-W[Trp(5-Cl)][Hyp]E[dL]C[Api](DOTA)LI[Cysteamide]
modifications: linker 6-10 via 2Lut
B11: Ac-Hse-Trp-5Brw-Hyp-Glu-leu-[Cys(2Lut)-Thp-Leu-Ile-Cys]-NH2 (peptide)
peptide: Ac-[hSer]W[Trp(5-Br)][Hyp]E[dL]C[Thp]LIC-NH2
modifications: linker 7-11 via Pyridine(2,6-diCH2)
SMILES: CC[C@H](C)[C@@H]1NC(=O)[C@H](CC(C)C)NC(=O)C2(CCOCC2)NC(=O)[C@@H](NC(=O)[C@@H](CC(C)C)NC(=O)[C@H](CCC(=O)O)NC(=O)[C@@H]2C[C@@H](O)CN2C(=O)[C@H](Cc2c[nH]c3ccc(Br)cc23)NC(=O)[C@H](Cc2c[nH]c3ccccc23)NC(=O)[C@H](CCO)NC(C)=O)CSCc2cccc(n2)CSC[C@@H](C(N)=O)NC1=O

*1 amine or outer side, *2 acyl side, *3 side chain or, on linkers, in order; H or OH if unused. Bridges are numbered along the chain shown (N, C = ends). Primed or numbered codes have the meaning given here. [ ]: non-standard residue; d: D form. The star is where a group is joined. Ttds = 1,13-diamino-4,7,10-trioxatridecan-succinamic acid, NCCCOCCOCCOCCCNC(=O)CCC(=O)*; DOTA(In) = O=C1CN2CCN3CCN(CC(=O)*)CCN(CC2)CC(=O)[O][In]([O]1)[O]C(=O)C3; APAc″ = 4-amino-1-carboxymethylpiperidine, NC1CCN(CC(=O)*)CC1; Pro(trans-4-NH2) = O=C([C@@H]1C[C@@H](N[*:3])CN1[*:1])[*:2]; DOTA = O=C(O)CN1CCN(CC(=O)O)CCN(CC(=O)*)CCN(CC(=O)O)CC1; 3MeBn = 3-methyl-benzylidene (derived from 1,3-xylene); 2Lut = 2,6-lutidylidene bridge between two thiols; Trp(5-Br) = N[C@@H](Cc1c[nH]c2ccc(Br)cc12)C(=O)O; Trp(5-Cl) = N[C@@H](Cc1c[nH]c2ccc(Cl)cc12)C(=O)O; Pyridine(2,6-diCH2) = c1cc(C[*:1])nc(C[*:2])c1; APAc = 4-amino-1-carboxymethylpiperidine; Glutaryl = O=C(CCCC(=O)[*:2])[*:1]; AGLU = 1-amino-1-deoxy-D-glucitol; Hyp = O=C(O)[C@@H]1C[C@@H](O)CN1; Cysteamide = C(CS[*:3])N[*:1]; Suc = O=C(CCC(=O)[*:2])[*:1]; N(CH2CH2)2NH = C1CN(*)CCN1; hSer = N[C@@H](CCO)C(=O)O; Api = NC1(C(=O)O)CCNCC1; Thp = NC1(C(=O)O)CCOCC1; NH(CH2)5NH2 = NCCCCCN*; DOTA′ = DOTA chelator; Aib = CC(C)(N)C(=O)O

The first experiment deals with biotinylated extracellular domain of the human GIP receptor (bioGIPR) (human) (UniProt P48546). The experiment is described as follows: SPR single cycle kinetics, bioGIPR captured on chip; category A: pKD >9.0.
biotinylated extracellular domain of the human GIP receptor (bioGIPR) (human), sequence (P48546 24-138 limits assumed): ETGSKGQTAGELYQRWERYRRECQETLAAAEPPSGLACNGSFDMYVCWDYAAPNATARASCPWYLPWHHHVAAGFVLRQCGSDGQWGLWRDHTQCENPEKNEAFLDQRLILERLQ
On to B1, for which the pKD is over 9 pkd.

For the molecule B2, the pKD was over 9 pkd.

B3 had a pKD of over 9 pkd.

On to B4, for which the pKD is over 9 pkd.

Turning to B5, the pKD was over 9 pkd.

For B6, the pKD was over 9 pkd.

B7 yielded a pKD of over 9 pkd.

B8 came in with a pKD of over 9 pkd.

As to B9, the pKD is over 9 pkd.

The molecule B10 returned a pKD of over 9 pkd.

B11 had a pKD of over 9 pkd.

The next experiment deals with human Gastric Inhibitory Peptide Receptor (human) (UniProt P48546). Kind of experiment: FACS competition with GIP-057 on CHO-K1-hGIPR cells; pIC50 category A: >8.0.
human Gastric Inhibitory Peptide Receptor (human), sequence (P48546 22-466 limits assumed): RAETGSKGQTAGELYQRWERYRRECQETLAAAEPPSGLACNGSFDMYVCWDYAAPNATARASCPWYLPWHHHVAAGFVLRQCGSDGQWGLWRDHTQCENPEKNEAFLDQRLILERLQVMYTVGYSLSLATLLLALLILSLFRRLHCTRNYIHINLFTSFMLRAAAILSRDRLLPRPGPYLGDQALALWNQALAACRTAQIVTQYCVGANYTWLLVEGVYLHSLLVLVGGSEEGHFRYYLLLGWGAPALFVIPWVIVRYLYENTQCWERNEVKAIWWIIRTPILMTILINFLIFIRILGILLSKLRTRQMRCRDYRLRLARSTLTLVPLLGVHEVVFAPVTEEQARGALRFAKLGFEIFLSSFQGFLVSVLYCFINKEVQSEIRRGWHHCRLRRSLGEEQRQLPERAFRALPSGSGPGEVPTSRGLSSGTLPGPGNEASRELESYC
B1: the pIC50 is over 8 pic50.

Consider B2, for which the pIC50 was over 8 pic50.

On to B3, for which the pIC50 was over 8 pic50.

The molecule B4 registered a pIC50 of over 8 pic50.

Molecule B5 displayed a pIC50 of over 8 pic50.

B6 came in with a pIC50 of over 8 pic50.

Molecule B7 returned a pIC50 of over 8 pic50.

As for B8, the pIC50 is over 8 pic50.

The molecule B9 registered a pIC50 of over 8 pic50.

The molecule B10 yielded a pIC50 of over 8 pic50.

For B11, the pIC50 was over 8 pic50.

Another experiment addresses biotinylated extracellular domain of the human GIP receptor (bioGIPR) (human) (UniProt P48546). The experiment is described as follows: SPR single cycle kinetics, bioGIPR captured on chip; category A: t1/2 >15 min.
B1 showed a t1/2 of over 15 min.

B2 yielded a t1/2 of over 15 min.

Molecule B3 had a t1/2 of over 15 min.

B4: the t1/2 was over 15 min.

Regarding B5, the t1/2 is over 15 min.

In turn, B6 gave a t1/2 of over 15 min.

The molecule B7 gave a t1/2 of over 15 min.

For the molecule B8, the t1/2 was over 15 min.

The molecule B9 yielded a t1/2 of over 15 min.

For B10, the t1/2 was over 15 min.

As for B11, the t1/2 is over 15 min.
